The experiment concerns the target HLA-A*02:01 (Homo sapiens, UniProt P04439, D140Y/D185E/D98H/E176V/E277Q/G131W/G231S/I119V/I121R/I166T/I218V/L300P/L318F/N151K/N90K/P208A/P217A/Q86G/Q94H/R138H/R169H/T345S). As to the kind of experiment: MHC binding assay (UV-ligand exchange, beta2m ELISA, peptide exchange yield). The following applies: MHC class I binding score; binding to HLA-A*02:01 ranged by peptide exchange yield (UV-ligand exchange, β2m ELISA). An excerpt:
Candidate peptides for T cell based therapies according to the present invention were further tested for their MHC binding capacity (affinity). The individual peptide-MHC complexes were produced by UV-ligand exchange, where a UV-sensitive peptide is cleaved upon UV-irradiation, and exchanged with the peptide of interest as analyzed. Only peptide candidates that can effectively bind and stabilize the peptide-receptive MHC molecules prevent dissociation of the MHC complexes. To determine the yield of the exchange reaction, an ELISA was performed based on the detection of the light chain (β2m) of stabilized MHC complexes. The assay was performed as generally described in Rodenko et al. (Rodenko et al., 2006).
96 well MAXISorp plates (NUNC) were coated over night with 2 ug/ml streptavidin in PBS at room temperature, washed 4× and blocked for 1 h at 37° C. in 2% BSA containing blocking buffer. Refolded HLA-A*02:01/MLA-001 monomers served as standards, covering the range of 15-500 ng/ml. Peptide-MHC monomers of the UV-exchange reaction were diluted 100 fold in blocking buffer. Samples were incubated for 1 h at 37° C., washed four times, incubated with 2 ug/ml HRP conjugated anti-β2m for 1 h at 37° C., washed again and detected with TMB solution that is stopped with […]. Absorption was measured at 450 nm. Candidate peptides that show a high exchange yield (preferably higher than 50%, most preferred higher than 75%) are generally preferred for a generation and production of antibodies or fragments thereof, and/or T cell receptors or fragments thereof, as they show sufficient avidity to the MHC molecules and prevent dissociation of the MHC complexes.
(In an ELISA, binding on a coated surface is turned into a signal by an enzyme label.)

For the substance “94 (KSMDIVLTV; listed as Homo sapiens) [compound 94]”, the Peptide exchange entry is listed as “″+++″ (≥50 = +++)”.
The result for “95 (AILDAHIEV; listed as Homo sapiens) [compound 95]” reads “″++++″ (≥75% = ++++)”; that for “96 (KLYSRLVYV; listed as Homo sapiens) [compound 96]”, “″++″ (≥20% = ++)”.
The result for “97 (ALWWGVVTV; listed as Homo sapiens) [compound 97]” reads “″++″ (≥20% = ++)”; that for “98 (AMNGKSFSV; listed as Homo sapiens) [compound 98]”, “″++″ (≥20% = ++)”.
The result for “99 (KLLEVDLDTV; listed as Homo sapiens) [compound 99]” reads “″+++″ (≥50 = +++)”.
For the substance “100 (SLDDFLATA; listed as Homo sapiens) [compound 100]”, the Peptide exchange result was “″+++″ (≥50 = +++)”.
The result for “101 (GLSEGHTFQV; listed as Homo sapiens) [compound 101]” reads “″+++″ (≥50 = +++)”.
The result for “102 (KILVSLIEV; listed as Homo sapiens) [compound 102]” reads “″+++″ (≥50 = +++)”; that for “103 (FLFGYPKRL; listed as Homo sapiens) [compound 103]”, “″++″ (≥20% = ++)”.
The result for “104 (ILLTIKDDTIYL; listed as Homo sapiens) [compound 104]” reads “″+++″ (≥50 = +++)”.
As for “105 (YALDLSTFL; listed as Homo sapiens) [compound 105]”, the Peptide exchange result is given as “″+++″ (≥50 = +++)”.
Regarding “106 (SLISEKILL; listed as Homo sapiens) [compound 106]”, the Peptide exchange entry is listed as “″+++″ (≥50 = +++)”.
With “107 (ALLGGGPYML; listed as Homo sapiens) [compound 107]”, the Peptide exchange entry is “″+++″ (≥50 = +++)”.
The result for “108 (SLAELVPGVGGI; listed as Homo sapiens) [compound 108]” reads “″+++″ (≥50 = +++)”; that for “109 (ALDGDQMEL; listed as Homo sapiens) [compound 109]”, “″++″ (≥20% = ++)”; that for “110 (LLGELPRLLLL; listed as Homo sapiens) [compound 110]”, “″+++″ (≥50 = +++)”.
The result for “112 (KLGQVLIYL; listed as Homo sapiens) [compound 112]” reads “″++″ (≥20% = ++)”.
The result for “113 (ILYDLQQNL; listed as Homo sapiens) [compound 113]” reads “″++″ (≥20% = ++)”; that for “114 (TAVGHALVL; listed as Homo sapiens) [compound 114]”, “″+″ (≥10% = +)”.
As to “115 (SLFDVSHML; listed as Homo sapiens) [compound 115]”, the Peptide exchange entry is listed as “″+++″ (≥50 = +++)”.
The result for “116 (LVYQFVHPI; listed as Homo sapiens) [compound 116]” reads “″++″ (≥20% = ++)”.
With “117 (TLQPVDNSTISL; listed as Homo sapiens) [compound 117]”, the Peptide exchange result is “″++″ (≥20% = ++)”.
In the case of “118 (LLADLKTMV; listed as Homo sapiens) [compound 118]”, the Peptide exchange result is recorded as “″+++″ (≥50 = +++)”.
On to “119 (ILYQTVTGL; listed as Homo sapiens) [compound 119]”, for which the Peptide exchange entry was “″++″ (≥20% = ++)”.
Take “120 (VLYEGVDEV; listed as Homo sapiens) [compound 120]”: the Peptide exchange entry is on record as “″++″ (≥20% = ++)”.
The result for “121 (SLAPNIISQL; listed as Homo sapiens) [compound 121]” reads “″+++″ (≥50 = +++)”; that for “122 (SLMGMVLKL; listed as Homo sapiens) [compound 122]”, “″+++″ (≥50 = +++)”; that for “125 (KLGDFGLLVEL; listed as Homo sapiens) [compound 125]”, “″++++″ (≥75% = ++++)”.
The result for “126 (TLAKYLMEL; listed as Homo sapiens) [compound 126]” reads “″+++″ (≥50 = +++)”.
Take “128 (MLDDRAYLV; listed as Homo sapiens) [compound 128]”: the Peptide exchange entry was “″++″ (≥20% = ++)”.
The result for “129 (VLIDVLKEL; listed as Homo sapiens) [compound 129]” reads “″+++″ (≥50 = +++)”; that for “130 (GLGGSQLIDTHL; listed as Homo sapiens) [compound 130]”, “″++″ (≥20% = ++)”.
In the case of “131 (KLLDVVHPA; listed as Homo sapiens) [compound 131]”, the Peptide exchange entry is on record as “″++″ (≥20% = ++)”.
The result for “134 (GVAGGSILKGV; listed as Homo sapiens) [compound 134]” reads “″++++″ (≥75% = ++++)”; that for “135 (KLQEEIPVL; listed as Homo sapiens) [compound 135]”, “″++″ (≥20% = ++)”; that for “137 (QLTEIKPLL; listed as Homo sapiens) [compound 137]”, “″+++″ (≥50 = +++)”.
The result for “138 (KQFEGTVEI; listed as Homo sapiens) [compound 138]” reads “″+++″ (≥50 = +++)”; that for “139 (VLLNEILEQV; listed as Homo sapiens) [compound 139]”, “″+++″ (≥50 = +++)”; that for “140 (LLNEILEQV; listed as Homo sapiens) [compound 140]”, “″+++″ (≥50 = +++)”.
As to “143 (KLSDVWKEL; listed as Homo sapiens) [compound 143]”, the Peptide exchange entry is given as “″+++″ (≥50 = +++)”.
Consider “144 (LLNDRIWLA; listed as Homo sapiens) [compound 144]”, for which the Peptide exchange entry is “″+++″ (≥50 = +++)”.
The result for “145 (LLLEVVKQV; listed as Homo sapiens) [compound 145]” reads “″+++″ (≥50 = +++)”.
As to “146 (ALSDETWGL; listed as Homo sapiens) [compound 146]”, the Peptide exchange entry is listed as “″++″ (≥20% = ++)”.
The result for “147 (TLTELRAFL; listed as Homo sapiens) [compound 147]” reads “″++++″ (≥75% = ++++)”; that for “148 (RLLENMTEVV; listed as Homo sapiens) [compound 148]”, “″+++″ (≥50 = +++)”.
The result for “149 (YQFDKVGILTL; listed as Homo sapiens) [compound 149]” reads “″+++″ (≥50 = +++)”; that for “151 (SAQGSDVSLTACKV; listed as Homo sapiens) [compound 151]”, “″+++″ (≥50 = +++)”; that for “152 (KLLAVIHEL; listed as Homo sapiens) [compound 152]”, “″++″ (≥20% = ++)”.
For the substance “153 (ILFSEDSTKLFV; listed as Homo sapiens) [compound 153]”, the Peptide exchange entry is given as “″+++″ (≥50 = +++)”.
“154 (KLPSETIFVGC; listed as Homo sapiens) [compound 154]”: the Peptide exchange result is “″+++″ (≥50 = +++)”.
The result for “155 (RLLGEEVVRV; listed as Homo sapiens) [compound 155]” reads “″+++″ (≥50 = +++)”; that for “156 (SLMMTIINL; listed as Homo sapiens) [compound 156]”, “″++++″ (≥75% = ++++)”; that for “157 (SLIERDLKL; listed as Homo sapiens) [compound 157]”, “″+++″ (≥50 = +++)”.
The result for “158 (GLLDPSVFHV; listed as Homo sapiens) [compound 158]” reads “″+++″ (≥50 = +++)”.
The result for “159 (VLVDDDGIKVV; listed as Homo sapiens) [compound 159]” reads “″++″ (≥20% = ++)”; that for “160 (KLLEFDQLQL; listed as Homo sapiens) [compound 160]”, “″+++″ (≥50 = +++)”; that for “161 (FLKNELDNV; listed as Homo sapiens) [compound 161]”, “″+++″ (≥50 = +++)”.
For the substance “162 (KLMDYIDEL; listed as Homo sapiens) [compound 162]”, the Peptide exchange entry is given as “″+++″ (≥50 = +++)”.
The result for “163 (RLLHEVQEL; listed as Homo sapiens) [compound 163]” reads “″+++″ (≥50 = +++)”; that for “164 (KMLDEILLQL; listed as Homo sapiens) [compound 164]”, “″++++″ (≥75% = ++++)”; that for “165 (RLLDFPEAMVL; listed as Homo sapiens) [compound 165]”, “″++++″ (≥75% = ++++)”.
As for “166 (GLLEARGILGL; listed as Homo sapiens) [compound 166]”, the Peptide exchange entry is on record as “″+++″ (≥50 = +++)”.
For the substance “167 (SVIDHIHLISV; listed as Homo sapiens) [compound 167]”, the Peptide exchange entry is listed as “″+++″ (≥50 = +++)”.

The values are drawn from patent US10221225B2, “Peptides and combination of peptides and scaffolds thereof for use in immunotherapy against colorectal carcinoma (CRC) and other cancers” (immatics biotechnologies GmbH, priority 2015, dated 2019).
